Values belong to the binder of their own block, whether it stands above or below them.
How the values were obtained:
[1] = molecular target: T1, TGFβ1 (human, UniProt P01137); experiment: competition, SPR vs TGFβ-RII
[2] = molecular target: T2, TGFβ2 (human, UniProt P61812); experiment: competition, SPR vs TGFβ-RII
T2 chain: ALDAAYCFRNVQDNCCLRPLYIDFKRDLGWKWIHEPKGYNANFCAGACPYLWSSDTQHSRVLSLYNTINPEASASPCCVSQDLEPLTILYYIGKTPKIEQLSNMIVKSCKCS

[3] = molecular target: T3, TGFβ3 (human, UniProt P10600); experiment: competition, SPR vs TGFβ-RII
T3 chain: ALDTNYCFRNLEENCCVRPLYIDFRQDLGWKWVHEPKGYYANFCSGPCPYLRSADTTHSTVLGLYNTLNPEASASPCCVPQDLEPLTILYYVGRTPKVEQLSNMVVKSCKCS

[4] = molecular target: T2, TGFβ2; experiment: competition, SPR vs TGFβ-RIII
[5] = molecular target: T1, TGFβ1; experiment: competition, SPR vs TGFβ-RIII
[6] = molecular target: T3, TGFβ3; experiment: competition, SPR vs TGFβ-RIII
[7] = molecular target: T3, TGFβ3; experiment: SPR
[8] = molecular target: T1, TGFβ1; experiment: SPR
[9] = molecular target: T2, TGFβ2; experiment: SPR

EC50 [1]: 2 nM
EC50 [2]: 2.2 nM
EC50 [3]: 1.4 nM
EC50 [4]: 2.4 nM
EC50 [5]: 0.6 nM
EC50 [6]: 1.9 nM
B1: XPA.42.068 (antibody, V domains shown)
VH: not shown
VL: SSELTQPPSVSVAPGEKARITCGGNNIGRKSVHWYQQRPGQAPVVVLYYDRVRPSGIPERFSGSNSGNTATLTITRVEAGDEADYFCQVWDNTSEHVVFGGGTQLTVLG

EC50 [1]: 1.7 nM
EC50 [2]: 1.8 nM
EC50 [3]: 34 nM
EC50 [4]: 1.6 nM
EC50 [5]: 1.2 nM
EC50 [6]: 31 nM
B2: XPA.42.089 (antibody, V domains shown)
VH: QVQLVQSGAEVKKPGSSVKVSCKASGGTFSSYAISWVRQAPGQGLEWMGGIIPIFGTANYAQKFQGRVTITADESTSTAYMELSSLRSEDTAVYYCARGLWEVRALPSVYWGQGTLVTVSS
VL: SYELTQPPSVSVAPGQTARITCGANDIGSKSVHWYQQKAGQAPVLVVSEDIIRPSGIPERISGSNSGNTATLTISRVEAGDEADYYCQVWDRDSDQYVFGTGTKVTVLG

EC50 [1]: 2.3 nM
EC50 [2]: 1.7 nM
EC50 [3]: 1.2 nM
EC50 [4]: 2.1 nM
EC50 [5]: 1.2 nM
EC50 [6]: 1.1 nM
B3: XPA.42.681 (antibody, V domains shown)
VH: not shown
VL: SYVLTQPPSVSVAPGKTARITCGGNNIGFRSVHWYQQKSGQAPVLVIYFDRARPSGIPERFSASNSENTATLTIRRVEAGDEADYYCQVWDSDSDDLVFGGGTQLTVLG

binding result [7]: no binding
binding result [8]: no binding
binding result [9]: no binding
B4: TGFβ-RI (protein)
chain: LQCFCHLCTKDNFTCVTDGLCFVSVTETTDKVIHNSMCIAEIDLIPRDRPFVCAPSSKTGSVTTTYCCNQDHCNKIELPTTVKSSPGLGPVEL

— patent US9714285 (dated 2017)
